Experimental data from patent publication US20150174202A1, “Methods and Compositions for Modulating Beta Cell Proliferation” (The Board of Trustees of the Leland Stanford Junior …, priority 2011, published 2015).
Entries after “also recorded” stand apart in the source; their conditions may differ.

B1: prolactin (protein, UniProt P01236 29-227, looked up)
Prolactin: LPICPGGAARCQVTLRDLFDRAVVLSHYIHNLSSEMFSEFDKRYTHGRGFITKAINSCHTSSLATPEDKEQAQQMNQKDFLSLIVSILRSWNEPLYHLVTEVRGMQEAPEAILSKAVEIEEQTKRLLEGMELIVSQVHPETKENEIYPVWSGLPSLQMADEESRLSAYYNLLHCLRRDSHKIDNYLKLLKCRIIHNNNC
notes: mitogen capable of promoting β-cell proliferation
B2: Wnt3a: purified Wnt3a protein (protein, UniProt P56704 19-352, looked up)
Protein Wnt-3a: SYPIWWSLAVGPQYSSLGSQPILCASIPGLVPKQLRFCRNYVEIMPSVAEGIKIGIQECQHQFRGRRWNCTTVHDSLAIFGPVLDKATRESAFVHAIASAGVAFAVTRSCAEGTAAICGCSSRHQGSPGKGWKWGGCSEDIEFGGMVSREFADARENRPDARSAMNRHNNEAGRQAIASHMHLKCKCHGLSGSCEVKTCWWSQPDFRAIGDFLKDKYDSASEMVVEKHRESRGWVETLRPRYTYFKVPTERDLVYYEASPNFCEPNPETGSFGTRDRTCNVSSHGIDGCDLLCCGRGHNARAERRREKCRCVFHWCCYVSCQECTRVYDVHTCK

Columns and labels:
Assay type in all cases: cell-based
[1] = system: Ezh2; assay: Ezh2/Ezh1 expression in cultured mouse islets (real-time RT-PCR, western blot); conditions: juvenile mouse islets exposed to insulin or prolactin, 2 days
Description: Mouse pancreatic islets were purified as described in Chen et al. (2009) Genes Dev. 23, 975-985 and used immediately for assays described in the text. To study Ezh2 induction in cultured islets exposed to mitogens, freshly isolated islets from 2-3-week old, and 7-12-month old C57BL/6 mice were recovered and equilibrated overnight at 37° C., 5% CO2 in RPMI-1640 medium supplemented with 0.5% fetal bovine serum (FBS), 0.2% bovine albumin (BSA) and 2% penicillin/streptomycin. […] Immunostaining of BrdU and insulin was performed on processed islets, and β-cell proliferation rate was determined by quantifying percentage of insulin+ cells with BrdU+. […] RNA concentration was measured with a RiboGreen RNA quantification assay (Invitrogen). One-step quantitative RT-PCR was performed and analysed using an ABI Prism 7300 detection system (Applied Biosystems) with TaqMan one-step RTPCR Master Mix Reagents and appropriate amounts (10-100 ng) of islet total RNA as the template. We calculated the ratio of mRNA for the gene of interest to the amount of internal control mRNA of peptidylprolyl isomerase A (cyclophilin A, PPIA), and then normalized the ratio for each gene to its median. […]

[2] = system: PDGFRA; assay: Pdgfra expression in cultured adult mouse islets exposed to Wnt3a or R-Spondin; conditions: isolated adult mouse islets (4-5 months of age) in culture
Description: In diverse tissues, including the pancreas, Wnt signaling activates expression of Axin2, a negative regulator of the pathway. […] This spatially and temporally restricted expression pattern is reminiscent of declining Pdgfra, Pdgfrab, and Ezh2 levels and β-cell proliferation in animals (FIG. 22B-D, Chen et al 2009, 2011). Likewise, in mice harboring a ‘Top-Gal’ synthetic reporter gene of Wnt signaling activity, β-galactosidase reporter expression declines in islet β-cells with age (FIG. 22E-G). Thus, changes in Wnt signaling underlie age-dependent reductions of Pdgfr expression and β-cell PDGF signaling competence in β-cells. Consistent with this, culture of isolated adult mouse islets (4-5 months of age) with purified Wnt3a or the Wnt agonist R-Spondin increased Pdgfra mRNA expression. As described above, Pdgfra signaling induced Ezh2 expression in islets. To assess the function of Pdgfra induced by R-Spondin, R-Spondin was added to adult mouse islets, followed by addition of purified PDGF-AA (100 ng/ml), and Ezh2 mRNA levels were then measured.

[3] = system: PDGFRα and PDGFRβ; assay: PDGFR mRNA in cultured adult human islets exposed to Wnt3a or R-Spondin
[4] = adult human islets (mean age >40 years), exposed for two days

| Molecule | Ezh2 mRNA levels after mitogen exposure [1] | Pdgfra mRNA expression [2] | mRNA levels encoding PDGFRα [3, 4] | mRNA levels encoding PDGFRβ [3, 4] | dose dependence of induction of PDGFRA and PDGFRB mRNA ([3]; cultured adult human islets) |
| --- | --- | --- | --- | --- | --- |
| B1 | did not detectably alter; also recorded: did not induce |  |  |  |  |
| B2 |  | increased | increased | increased | depends on the dose |
